The target of this assay is Adenovirus Serotype 5, replication incompetent, E1A deleted, expressing GFP (Ad5-GFP), whole virus (human adenovirus serotype 5, UniProt P12538 1-571); P11818 1-581; P04133 1-952, Whole virion. Only the three major capsid proteins named in the paper are given, as wild type: penton base (5 at each of 12 vertices), fiber (trimer at each vertex), hexon (240 trimers; the paper prin). In words: ELISA; cell-based: MDA-MB-435 cells in 96-well poly-D-lysine plates, incubated with whole Ad5 at varying concentrations for 18 hrs at 4°C, washed, fixed; bound virus detected with polyclonal rabbit anti-Ad5 and an ELISA amplification system; fit to the Langmuir binding isotherm. The settings on record: one partner purified. In general terms: ELISA stands for enzyme-linked immunosorbent assay.

B1: Integrin αvβ5 (receptor)
chain 1: FNLDVDSPAEYSGPEGSYFGFAVDFFVPSASSRMFLLVGAPKANTTQPGIVEGGQVLKCDWSSTRRCQPIEFDATGNRDYAKDDPLEFKSHQWFGASVRSKQDKILACAPLYHWRTEMKQEREPVGTCFLQDGTKTVEYAPCRSQDIDADGQGFCQGGFSIDFTKADRVLLGGPGSFYWQGQLISDQVAEIVSKYDPNVYSIKYNNQLATRTAQAIFDDSYLGYSVAVGDFNGDGIDDFVSGVPRAARTLGMVYIYDGKNMSSLYNFTGEQMAAYFGFSVAATDINGDDYADVFIGAPLFMDRGSDGKLQEVGQVSVSLQRASGDFQTTKLNGFEVFARFGSAIAPLGDLDQDGFNDIAIAAPYGGEDKKGIVYIFNGRSTGLNAVPSQILEGQWAARSMPPSFGYSMKGATDIDKNGYPDLIVGAFGVDRAILYRARPVITVNAGLEVYPSILNQDNKTCSLPGTALKVSCFNVRFCLKADGKGVLPRKLNFQVELLLDKLKQKGAIRRALFLYSRSPSHSKNMTISRGGLMQCEELIAYLRDESEFRDKLTPITIFMEYRLDYRTAADTTGLQPILNQFTPANISRQAHILLDCGEDNVCKPKLEVSVDSDQKKIYIGDDNPLTLIVKAQNQGEGAYEAELIVSIPLQADFIGVVRNNEALARLSCAFKTENQTRQVVCDLGNPMKAGTQLLAGLRFSVHQQSEMDTSVKFDLQIQSSNLFDKVSPVVSHKVDLAVLAAVEIRGVSSPDHVFLPIPNWEHKENPETEEDVGPVVQHIYELRNNGPSSFSKAMLHLQWPYKYNNNTLLYILHYDIDGPMNCTSDMEINPLRIKISSLQTTEKNDTVAGQGERDHLITKRDLALSEGDIHTLGCGVAQCLKIVCQVGRLDRGKSAILYVKSLLWTETFMNKENQNHSYSLKSSASFNVIEFPYKNLPIEDITNSTLVTTNVTWGIQPAPMPVPVWVIILAVLAGLLLLAVLVFVMYRMGFFKRVRPPQEEQEREQLQPHENGEGNSET
chain 2: GLNICTSGSATSCEECLLIHPKCAWCSKEDFGSPRSITSRCDLRANLVKNGCGGEIESPASSFHVLRSLPLSSKGSGSAGWDVIQMTPQEIAVNLRPGDKTTFQLQVRQVEDYPVDLYYLMDLSLSMKDDLDNIRSLGTKLAEEMRKLTSNFRLGFGSFVDKDISPFSYTAPRYQTNPCIGYKLFPNCVPSFGFRHLLPLTDRVDSFNEEVRKQRVSRNRDAPEGGFDAVLQAAVCKEKIGWRKDALHLLVFTTDDVPHIALDGKLGGLVQPHDGQCHLNEANEYTASNQMDYPSLALLGEKLAENNINLIFAVTKNHYMLYKNFTALIPGTTVEILDGDSKNIIQLIINAYNSIRSKVELSVWDQPEDLNLFFTATCQDGVSYPGQRKCEGLKIGDTASFEVSLEARSCPSRHTEHVFALRPVGFRDSLEVGVTYNCTCGCSVGLEPNSARCNGSGTYVCGLCECSPGYLGTRCECQDGENQSVYQNLCREAEGKPLCSGRGDCSCNQCSCFESEFGKIYGPFCECDNFSCARNKGVLCSGHGECHCGECKCHAGYIGDNCNCSTDISTCRGRDGQICSERGHCLCGQCQCTEPGAFGEMCEKCPTCPDACSTKRDCVECLLLHSGKPDNQTCHSLCRDEVITWVDTIVKDDQEAVLCFYKTAKDCVMMFTYVELPSGKSNLTVLREPECGNTPNAMTILLAVVGSILLVGLALLAIWKLLVTIHDRREFAKFQSERSRARYEMASNPLYRKPISTHTVDFTFNKFNKSYNGTVD
notes: integrin alpha-V subunit, human, endogenous on the surface of MDA-MB-435 and MCF7 cells; integrin beta-5 subunit, human, endogenous on the surface of MDA-MB-435 and MCF7 cells; no isolated integrin was used; source: endogenous, on MDA-MB-435 and MCF7 cells
In the case of B1, the Kd (usually the constant that tells how readily two partners part at equilibrium) is 0.14 nM. This lies in the sub-nanomolar range.
